These results are taken from PMC7347456 (Structure (London, England : 1993), 2020).

Ends that are not written are not given here.

The term Kd denotes a measure of binding affinity in units of concentration. Low readings indicate higher affinity, high ones lower affinity.

Assay [1] concerns the target full-length human LRH-1 S148R (human, UniProt O00482 1-541, S148R). Description: fluorescence polarisation. A general note: Polarisation of emitted light reports the rotation of a fluorescent probe.
For assay [2], the target named is full-length human LRH-1 R174D/D314R (human, UniProt O00482 1-541, R174D | D314R). Description: fluorescence polarisation.
Assay [3] addresses T1, full-length human LRH-1 (Liver Receptor Homolog-1; NR5A2), wild type (human, UniProt O00482 1-541). Kind of assay: fluorescence polarisation.
Assay [4] concerns the target full-length human LRH-1 A324R (human, UniProt O00482 1-541, A324R). Kind of assay: fluorescence polarisation.
For assay [5], the target named is full-length human LRH-1 D314R (human, UniProt O00482 1-541, D314R). Description: fluorescence polarisation.
Assay [6] concerns the target T1, full-length human LRH-1 (Liver Receptor …). Description: cross-linking.

T1 sequence (O00482 whole entry): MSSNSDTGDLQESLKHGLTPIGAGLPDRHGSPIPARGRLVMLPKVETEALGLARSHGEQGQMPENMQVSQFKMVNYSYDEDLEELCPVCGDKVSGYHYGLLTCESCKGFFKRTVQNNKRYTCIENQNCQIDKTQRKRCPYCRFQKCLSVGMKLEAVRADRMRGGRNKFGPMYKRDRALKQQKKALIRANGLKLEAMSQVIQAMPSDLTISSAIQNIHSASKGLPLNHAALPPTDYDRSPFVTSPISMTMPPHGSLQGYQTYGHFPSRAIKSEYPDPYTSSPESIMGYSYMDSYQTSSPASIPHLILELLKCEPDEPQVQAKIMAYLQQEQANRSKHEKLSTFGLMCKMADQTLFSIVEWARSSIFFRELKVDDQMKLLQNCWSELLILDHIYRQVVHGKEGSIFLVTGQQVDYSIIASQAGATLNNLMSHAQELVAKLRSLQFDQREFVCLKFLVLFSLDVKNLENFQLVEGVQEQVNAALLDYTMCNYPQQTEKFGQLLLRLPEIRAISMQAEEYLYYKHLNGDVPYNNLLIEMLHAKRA
full-length human LRH-1 A324R, sequence (O00482 whole entry A324R): as the sequence (O00482 whole entry) above, with A324R counted along it
full-length human LRH-1 S148R, sequence (O00482 whole entry S148R): as the sequence (O00482 whole entry) above, with S148R counted along it
full-length human LRH-1 D314R, sequence (O00482 whole entry D314R): as the sequence (O00482 whole entry) above, with D314R counted along it
full-length human LRH-1 R174D/D314R, sequence (O00482 whole entry R174D/D314R): as the sequence (O00482 whole entry) above, with R174D, D314R counted along it

B1: N-terminally FAM-labeled PGC1α co-regulator peptide (740-EEPSLLKKLLLAPA-753) (peptide)
peptide: {FAM}-EEPSLLKKLLLAPA
As for B1, the Kd in assay [1] was 7030 nM; in assay [2], 1720 nM; in assay [3] it was 1360 nM; in assay [4], 1510 nM; in assay [5], 2280 nM.

B2: PGC1α co-activator peptide (740-EEPSLLKKLLLAPA-753), unlabeled (peptide)
peptide: EEPSLLKKLLLAPA
Consider B2, for which the binding result in assay [6] is reported as “binds”.
